Where a chain is given by its changes, count along the chain named.
T1: canine NGF (canine, UniProt Q29074 110-229 (pig entry), limits assumed)
T1 construct: The protein was secreted from CHO cells and purified; also called cNGF; canine β-NGF
T1 chain: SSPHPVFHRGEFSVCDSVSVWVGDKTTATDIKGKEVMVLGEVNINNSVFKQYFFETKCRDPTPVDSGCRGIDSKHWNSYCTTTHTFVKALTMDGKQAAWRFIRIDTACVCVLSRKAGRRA

T2: human NGF (human, UniProt P01138 122-241)
T2 construct: also called human Nerve Growth Factor; hN
T2 chain: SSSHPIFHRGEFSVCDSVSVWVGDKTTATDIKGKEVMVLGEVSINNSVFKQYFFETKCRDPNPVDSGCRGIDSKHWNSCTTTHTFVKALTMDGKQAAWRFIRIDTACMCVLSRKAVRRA

B1: ZTS-842 (antibody, V domains shown)
VH: EVQLVESGGDLVKPGGSLRLSCVASGFTFSTYGINWVRQAPGKGLQWVAYISSGGSSTYYADPVKGRFTISRDDAKNMLYLQMNSLRAEDTAIYYCAGSRYTYAYGGGYEFHFWGQGTLVTVSS
VL: QAVLNQPASVSGALGQKVTISCSGSTMDIDIFGVSWYQQLPGKAPKLLVDSDGDRPSGIPDRFSGSRSGNSGTLTITGLQAEDEADYHCQSGDSTLGALAIFGGGTHVTVL
notes: Canine mAb; also called 48L2; can48L2
B2: ZTS-205 (antibody, V domains shown)
VH: B1 VH with E1D, S21T, D74N, S85N, R87K, A88T, I93T
VL: QAVLNQPSSVSGALGQRVTISCSGSTMDIDIFGVSWYQQIPGMAPKTIIDSDGDRPSGVPDRFSGSKSGSTGTLTITGLQAEDEADYYCQSGDSTLGALAIFGGGTHVTVLG
notes: Felinized 48L2; also called fel48L2 1.1; fel48L21.1
B3: humanized mAb can48L2VH_HM855336.1 / can48L2VL_Z22192.1_P14L (antibody, V domains shown)
VH: EVQLVESGGGLVQPGGSLRLSCAASGFTFSTYGMNWVRQAPGKGLEWVSYISSGGSSIYYADSVKGRFTISRDNAKNSLYLQMNSLRAEDTAVYYCAGSRYTYAYGGGYEFHFWGQGTLVTVSS
VL: QSVVTQPPSVSGALGQRVTISCTGSTMDIDIFGVSWYQQLPGTAPKLLIYGDGDRPSGVPDRFSGSKSGASASLAITGLQAEDEADYHCQSGDSTLGALAIFGGGTHVTVL
B4: ZTS-841 (antibody, V domains shown)
VH: EVQLVESGGDLVKPGGSLRLSCVASGFTFSSHGMHWVRQSPGKGLQWVAVINSGGSSTYYTDAVKGRFTISRDNAKNTVYLQMNSLRAEDTAMYYCAKESVGGWEQLVGPHFDYWGQGTLVIVSS
VL: QSVLTQPTSVSGSLGQRVTISCSGSTNNIGILGASWYQLFPGKAPKLLVYGNGNRPSGVPDRFSGADSGDSVTLTITGLQAEDEADYYCQSFDTTLGAHVFGGGTHLTVL
notes: Canine mAb; also called 9L12; can9L12

Legend:
[1] = molecular target: T3, rat NGF (rat, UniProt P25427 122-241); test: SPR (Biacore), NGF amine-coupled on chip, antibody injected
T3 construct: also called rN
T3 sequence (P25427 122-241 limits assumed): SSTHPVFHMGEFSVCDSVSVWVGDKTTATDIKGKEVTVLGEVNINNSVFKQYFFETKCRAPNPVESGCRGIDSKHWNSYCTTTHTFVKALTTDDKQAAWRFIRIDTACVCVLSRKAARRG
Protocol: (§1) Antibody binding affinities of the antibodies against canine NGF were determined by surface plasmon resonance (SPR) on a Biacore system (Biocore Life Sciences (GE Healthcare), Uppsala, Sweden). Immobilization of canine and rat NGF were obtained by amine coupling […] NGF using N-hydroxysuccinimide (NHS)/1-Ethyl-3-(3-dimethylaminopropyl) carbodiimide (EDC) chemistry. Chips were quenched with ethanolamine and the affinity with which all candidate mAbs bound to the immobilized NGF was evaluated. Various concentrations of canine and felinized anti-NGF antibodies were injected over the NGF surfaces while the association of the antibody to the antigen and the dissociation of the formed complex were monitored in real time. Kinetic analysis was performed to obtain the equilibrium dissociation constant (KD).

[2] = molecular target: T1, canine NGF; test: as above
Protocol: as §1

[3] = molecular target: T2, human NGF; test: SPR (Biacore), human NGF amine-coupled on chip, antibody injected
Protocol: Antibody binding affinities of the antibodies against human NGF (SEQ ID NO.66) were determined by surface plasmon resonance (SPR). Human NGF was immobilized on the surface of a BIACORE chip by direct amine coupling. Various concentrations of the described humanized anti-NGF antibodies were injected over the human NGF surfaces while the association of the antibody to the antigen and the dissociation of the formed complex were monitored in real time. Kinetic analysis was performed to obtain the equilibrium dissociation constant (KD).

Binder	Kd [1]	koff [1]	kon [1]	Kd [2]	koff [2]	kon [2]	Kd [3]	koff [3]	kon [3]
B1	0.00325 nM	1.42e-06 s⁻¹	573000 M⁻¹ s⁻¹	0.0217 nM	2.27e-05 s⁻¹	703000 M⁻¹ s⁻¹			
B2	0.277 nM	0.00029 s⁻¹	672000 M⁻¹ s⁻¹	0.111 nM	8.93e-05 s⁻¹	426000 M⁻¹ s⁻¹			
B3							1.49 nM	0.000422 s⁻¹	283000 M⁻¹ s⁻¹
B4	0.108 nM	4.61e-05 s⁻¹	587000 M⁻¹ s⁻¹	0.0506 nM	2.36e-05 s⁻¹	527000 M⁻¹ s⁻¹			
